The values below come from the RNAGym collection of RNA variant scans (doi:10.7554/elife.90254).

B1: OR4K15 (parent)
chain: GUUAACGGUCAUAGGCCAUGGAAACUAGGAGCACCAUUUCGCUGCCAGUGAAGAAAUGAACAAAGAAAAUCUGGGCCAGGCAGGCAUCAAAAGAAAUAGUCUUGCGCUCAACCAGAAAGUCUGUAAUCAUUUUAAGGGUA

Variants of B1 are the subject of the data set. As to the kind of experiment: self-cleavage, relative activity (ratio to wild type); higher = more cleavage; in vitro, sequencing; the parent is a self-cleaving ribozyme.
As for A5G A51U, the self-cleavage amounted to 1.35.
For U9A A66G, the self-cleavage came out at 1.
Turning to C6A A55G, the self-cleavage is 1.13.
Turning to C6A U9C, the self-cleavage came to 1.47.
With G7C A11G the figure was 1.03; with U9A U124C, 0.91.
Take U9A G106C: the self-cleavage came out at 0.05.
On to C6U A68G, for which the self-cleavage was found to be 0.79.
The same measure for A5U U139C: 0.93; for G7U A86U: 1.63.
The same measure for U9A U43G: 1.18; for U9A U43C: 1.25; for A5G A60U: 1.08.
For A5G A60G, the self-cleavage is 1.08.
In the case of A5G A59G, the self-cleavage is 0.99.
Consider A5U U124C, for which the self-cleavage is 0.99.
With U9A A47U the figure was 0.91; with A5G U120A, 1.77.
Regarding A5G U120C, the self-cleavage stood at 0.86.
Regarding A5G A68U, the self-cleavage was found to be 0.85.
For the variant A5G A68C, the self-cleavage is 1.03.
In the case of C6U A23G, the self-cleavage stood at 1.15.
For A5G U97A, the self-cleavage is 1.57.
With G7A A60G the figure was 2.29; with U9C A52C, 1.39.
Turning to U9C A94G, the self-cleavage is 1.35.
The same measure for G7A A62U: 1.38; for A5G U108A: 0.05; for A5G U108C: 0.06.
A5G G58A: the self-cleavage worked out at 1.07.
For the variant G8A A91G, the self-cleavage worked out at 1.17.
On to A5U A82G, for which the self-cleavage was determined as 0.6.
The same measure for G7A A63G: 1.86.
The same measure for A5G G74A: 0.73; for C6U A67G: 1.39.
The same measure for A5U A126G: 1.07; for C6A A89U: 1.38.
For U9A U57C, the self-cleavage was 1.02.
With G7A U26C the figure was 1.44.
Consider G7A U26A, for which the self-cleavage was found to be 0.93.
Regarding G8A U108A, the self-cleavage stood at 0.05.
Turning to U9C A91C, the self-cleavage came to 2.12.
Turning to U9C A91G, the self-cleavage came to 1.2.
Turning to A5U U102A, the self-cleavage worked out at 1.12.
Regarding U9A A78G, the self-cleavage was 0.32.
As for U9A A78U, the self-cleavage amounted to 0.15.
The same measure for A5U U19C: 1.4.
As to U9C A13G, the self-cleavage was found to be 0.81.
The same measure for G7U C77A: 0.23; for A5U A22G: 0.69.
U9A G58A: the self-cleavage amounted to 0.78.
For G8A A52G, the self-cleavage turned out to be 2.73.
The same measure for U9C A64G: 1.52; for G7A A67G: 1.61.
As for C6U A78U, the self-cleavage came out at 0.25.
The same measure for C6U A78G: 0.4.
As to U9C A36U, the self-cleavage was found to be 1.48.
In the case of G8A A23G, the self-cleavage turned out to be 1.58.
As to U9A A54G, the self-cleavage was 1.42.
On to G8C A52C, for which the self-cleavage is 2.89.
With C6U C45A the figure was 1.31; with G8A A118G, 1.28; with A5G A36G, 0.8.
On to A5G A36C, for which the self-cleavage was determined as 1.79.
C6A A67G: the self-cleavage stood at 0.72.
On to U9C A67G, for which the self-cleavage turned out to be 1.85.
With U9C A67C the figure was 1.31.
For the variant G8A A59G, the self-cleavage came out at 1.47.
With U9A A24U the figure was 2.1; with U9A U120A, 1.36; with U9A U120C, 0.79.
As for G7A, the self-cleavage was determined as 1.65.
The same measure for G7C: 1.07; for G7U: 1.23.
With C6U A33U the figure was 1.05; with A5U C6U, 1.27; with C6U U43A, 0.96.
On to G7A U9C, for which the self-cleavage stood at 2.32.
With G7U A66G the figure was 1.42.
As to U9A C34U, the self-cleavage came out at 0.55.
For the variant G7A U102C, the self-cleavage was 1.75.
On to A5G C35U, for which the self-cleavage was 1.59.
Take A5G A91G: the self-cleavage stood at 0.47.
With G7U A60G, the self-cleavage was determined as 0.79.
Consider U9A A126G, for which the self-cleavage is 0.57.
As to G7U A52G, the self-cleavage turned out to be 1.83.
Take U9C A90G: the self-cleavage came out at 1.04.
For U9A U38C, the self-cleavage stood at 1.05.
The same measure for G8A A18U: 0.97; for G7A A90U: 2.31; for A5G A69G: 1.54.
With G8A U43A, the self-cleavage came out at 2.05.
For the variant A5G G14C, the self-cleavage came to 1.57.
With A5G A98G the figure was 0.7.
With U9A C109A the figure was 0.42.
Regarding A5G U100C, the self-cleavage was 1.11.
The same measure for A5U A116G: 1.13; for A5U A117G: 1.74.
The same measure for G7A A55G: 1.39; for U9C A86U: 1.74.
For the variant A5G U39C, the self-cleavage was found to be 1.32.
Consider A5G U39A, for which the self-cleavage turned out to be 1.16.
Consider C6U U127C, for which the self-cleavage is 0.57.
On to A5U C42A, for which the self-cleavage is 1.82.
On to G7U G138C, for which the self-cleavage was 2.14.
For G7A A27U, the self-cleavage was 0.85.
In the case of C6U A60G, the self-cleavage is 0.8.
As for A5G A82G, the self-cleavage was determined as 0.68.
Take A5G A82U: the self-cleavage turned out to be 0.41.
Regarding A5U C109U, the self-cleavage is 0.68.
With G7A A96U, the self-cleavage came to 1.83.
The same measure for G7A A96G: 2.05; for G7A U70C: 1.
Turning to C6U A62G, the self-cleavage came out at 0.56.
As for G7A A86U, the self-cleavage is 1.86.
For A5G A27G, the self-cleavage was determined as 1.02.
As to U9A A60G, the self-cleavage stood at 0.57.
Turning to A5G A116G, the self-cleavage worked out at 0.47.
With A5U U100C the figure was 1.64.
As for C6U U49C, the self-cleavage was 0.83.
Consider C6A A60G, for which the self-cleavage is 0.5.
On to A5G A117G, for which the self-cleavage came to 1.51.
G7A U100A: the self-cleavage turned out to be 0.82.
On to G7A U100C, for which the self-cleavage was determined as 2.22.
As for A5G A95G, the self-cleavage was 1.27.
G7A U133A: the self-cleavage was 0.79.
Turning to A5G C88A, the self-cleavage amounted to 0.8.
For the variant A5G A140G, the self-cleavage amounted to 0.77.
Consider G7A A78U, for which the self-cleavage was 0.33.
With A5G U49A the figure was 0.9; with U9C A96U, 1.72; with A5G U122A, 1.34.
With A5G U122C the figure was 0.91.
On to U9A U127A, for which the self-cleavage worked out at 0.66.
With U9A U127C the figure was 1.05; with A5G A64U, 1.85.
With A5G A64G, the self-cleavage is 1.16.
In the case of G7U A11G, the self-cleavage came to 1.63.
In the case of A5U A129G, the self-cleavage worked out at 0.79.
Regarding U9A A95G, the self-cleavage amounted to 1.18.
The same measure for C6U A54G: 0.92; for A5G A114G: 0.41; for A5G A114U: 0.04.
Regarding G7U A118G, the self-cleavage was found to be 1.38.
Consider A5G G106C, for which the self-cleavage was found to be 0.08.
For the variant C6U A125G, the self-cleavage amounted to 0.53.
As for A5U U43A, the self-cleavage is 2.16.
In the case of A5U A54U, the self-cleavage came out at 1.7.
With G8A A27G the figure was 1.84; with G7U A68G, 2.39.
The same measure for C6U U122C: 0.82; for A5U A94G: 1.51.
For A5G A30G, the self-cleavage stood at 1.03.
With U9C A33U, the self-cleavage was 1.73.
As for U9C A33G, the self-cleavage was determined as 1.15.
On to C6U U131C, for which the self-cleavage amounted to 0.08.
Take U9A U102C: the self-cleavage was determined as 1.97.
For the variant U9A G115A, the self-cleavage came out at 0.23.
With A5U A63G, the self-cleavage was 1.2.
As for U9A A30U, the self-cleavage was 1.22.
With C6U U108C the figure was 0.08; with C6A C61U, 0.76.
G7A A24G: the self-cleavage turned out to be 1.4.
Turning to U9A A62U, the self-cleavage was found to be 0.88.
With U9A A62G, the self-cleavage was determined as 0.45.
The same measure for U9A U100C: 1.68; for G7U U97A: 1.41.
